The target in test [1] is αvβ6 integrin (purified, captured on the ELISA plate) (UniProt P06756). In words: ELISA (format not detailed at this place); not bearing K(IPA)E. (In general: In an ELISA, binding on a coated surface is turned into a signal by an enzyme label.)
In test [2] the target is αvβ6 integrin on DX3puroβ6 cells (human) (UniProt P06756). Briefly: cell binding of the radiotracer, DX3puroβ6 cells (FIG. 27).
Test [3] has the same target. Briefly: internalization of the radiotracer, DX3puroβ6 cells (FIG. 27).

Consider one substance from patent US20210206804A1.

As a reminder, the IC50 is the concentration needed to halve the response being measured. Read a low IC50 as inhibition by little substance.

Sequence of αvβ6 integrin on DX3puroβ6 cells (human) (P06756 31-1048 limits assumed, chain 1 of 2): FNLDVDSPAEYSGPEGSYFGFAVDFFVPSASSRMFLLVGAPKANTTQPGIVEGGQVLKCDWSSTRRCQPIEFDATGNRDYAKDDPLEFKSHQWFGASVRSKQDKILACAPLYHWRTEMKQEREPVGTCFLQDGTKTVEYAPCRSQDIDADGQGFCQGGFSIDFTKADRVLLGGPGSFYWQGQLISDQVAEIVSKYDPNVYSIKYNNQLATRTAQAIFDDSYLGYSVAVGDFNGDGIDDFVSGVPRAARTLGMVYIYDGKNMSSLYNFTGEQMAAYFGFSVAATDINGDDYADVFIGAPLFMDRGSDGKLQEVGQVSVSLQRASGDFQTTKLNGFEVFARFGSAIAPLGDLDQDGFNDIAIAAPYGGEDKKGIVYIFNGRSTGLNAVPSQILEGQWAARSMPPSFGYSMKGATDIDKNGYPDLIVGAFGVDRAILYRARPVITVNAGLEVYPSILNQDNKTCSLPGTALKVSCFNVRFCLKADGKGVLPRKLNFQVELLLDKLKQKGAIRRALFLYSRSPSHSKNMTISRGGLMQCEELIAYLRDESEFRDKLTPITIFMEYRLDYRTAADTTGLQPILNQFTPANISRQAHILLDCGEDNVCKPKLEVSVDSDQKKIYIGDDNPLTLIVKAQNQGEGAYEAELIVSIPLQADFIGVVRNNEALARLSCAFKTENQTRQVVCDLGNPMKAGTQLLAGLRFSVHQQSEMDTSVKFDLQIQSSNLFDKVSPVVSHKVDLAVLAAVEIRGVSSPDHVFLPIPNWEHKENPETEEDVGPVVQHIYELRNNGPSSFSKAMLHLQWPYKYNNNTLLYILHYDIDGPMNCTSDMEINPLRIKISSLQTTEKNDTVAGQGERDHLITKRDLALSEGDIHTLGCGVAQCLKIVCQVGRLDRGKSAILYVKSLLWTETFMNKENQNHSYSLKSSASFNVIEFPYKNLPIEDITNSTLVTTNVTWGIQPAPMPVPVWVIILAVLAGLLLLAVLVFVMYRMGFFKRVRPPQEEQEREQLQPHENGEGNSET
Sequence of αvβ6 integrin on DX3puroβ6 cells (human) (P18564 22-788 limits assumed, chain 2 of 2, further chain): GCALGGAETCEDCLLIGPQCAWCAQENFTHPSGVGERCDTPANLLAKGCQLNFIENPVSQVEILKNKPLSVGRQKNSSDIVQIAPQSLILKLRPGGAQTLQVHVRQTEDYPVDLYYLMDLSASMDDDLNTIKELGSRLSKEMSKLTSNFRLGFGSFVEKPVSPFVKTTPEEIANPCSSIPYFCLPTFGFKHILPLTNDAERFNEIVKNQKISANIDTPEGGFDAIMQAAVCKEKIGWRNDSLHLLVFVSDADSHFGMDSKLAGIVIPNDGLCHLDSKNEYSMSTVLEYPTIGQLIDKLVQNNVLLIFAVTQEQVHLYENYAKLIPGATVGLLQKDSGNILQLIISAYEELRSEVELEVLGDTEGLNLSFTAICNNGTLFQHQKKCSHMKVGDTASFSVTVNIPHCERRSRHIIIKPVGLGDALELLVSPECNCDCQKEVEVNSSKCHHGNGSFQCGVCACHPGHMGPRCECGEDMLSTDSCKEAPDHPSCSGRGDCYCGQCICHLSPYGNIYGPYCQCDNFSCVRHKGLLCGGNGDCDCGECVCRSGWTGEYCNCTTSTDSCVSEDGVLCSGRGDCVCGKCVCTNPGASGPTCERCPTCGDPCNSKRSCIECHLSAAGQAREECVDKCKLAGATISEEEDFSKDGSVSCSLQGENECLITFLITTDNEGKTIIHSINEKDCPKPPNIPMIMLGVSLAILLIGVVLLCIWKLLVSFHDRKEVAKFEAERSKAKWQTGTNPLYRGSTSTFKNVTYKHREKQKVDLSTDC
Sequence of αvβ6 integrin (purified, captured on the ELISA plate) (P06756 31-992, chain 1 of 2): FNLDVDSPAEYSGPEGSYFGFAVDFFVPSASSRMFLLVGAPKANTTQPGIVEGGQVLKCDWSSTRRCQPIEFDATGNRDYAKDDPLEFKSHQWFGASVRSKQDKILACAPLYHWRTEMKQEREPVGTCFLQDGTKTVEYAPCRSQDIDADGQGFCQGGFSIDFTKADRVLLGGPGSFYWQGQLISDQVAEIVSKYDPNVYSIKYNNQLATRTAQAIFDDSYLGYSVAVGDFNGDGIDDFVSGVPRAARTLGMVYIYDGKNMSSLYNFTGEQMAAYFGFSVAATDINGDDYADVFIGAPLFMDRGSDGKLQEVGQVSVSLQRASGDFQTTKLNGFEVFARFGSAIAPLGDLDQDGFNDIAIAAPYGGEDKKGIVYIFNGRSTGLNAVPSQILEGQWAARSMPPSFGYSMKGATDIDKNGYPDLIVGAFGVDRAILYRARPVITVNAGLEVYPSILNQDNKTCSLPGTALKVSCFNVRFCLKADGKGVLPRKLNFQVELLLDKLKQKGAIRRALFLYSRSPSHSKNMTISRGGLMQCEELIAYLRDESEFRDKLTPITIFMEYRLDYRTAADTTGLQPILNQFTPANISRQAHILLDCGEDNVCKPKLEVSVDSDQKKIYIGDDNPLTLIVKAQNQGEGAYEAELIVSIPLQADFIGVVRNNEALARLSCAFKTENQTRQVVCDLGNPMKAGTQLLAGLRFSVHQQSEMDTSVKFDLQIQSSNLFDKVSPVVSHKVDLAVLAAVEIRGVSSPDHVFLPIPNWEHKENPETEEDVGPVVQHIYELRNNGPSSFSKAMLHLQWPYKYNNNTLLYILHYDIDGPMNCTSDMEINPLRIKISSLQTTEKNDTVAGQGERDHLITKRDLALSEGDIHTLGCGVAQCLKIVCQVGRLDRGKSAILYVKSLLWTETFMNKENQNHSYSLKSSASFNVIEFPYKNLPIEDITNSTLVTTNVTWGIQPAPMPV
Sequence of αvβ6 integrin (purified, captured on the ELISA plate) (P18564 22-707, chain 2 of 2, further chain): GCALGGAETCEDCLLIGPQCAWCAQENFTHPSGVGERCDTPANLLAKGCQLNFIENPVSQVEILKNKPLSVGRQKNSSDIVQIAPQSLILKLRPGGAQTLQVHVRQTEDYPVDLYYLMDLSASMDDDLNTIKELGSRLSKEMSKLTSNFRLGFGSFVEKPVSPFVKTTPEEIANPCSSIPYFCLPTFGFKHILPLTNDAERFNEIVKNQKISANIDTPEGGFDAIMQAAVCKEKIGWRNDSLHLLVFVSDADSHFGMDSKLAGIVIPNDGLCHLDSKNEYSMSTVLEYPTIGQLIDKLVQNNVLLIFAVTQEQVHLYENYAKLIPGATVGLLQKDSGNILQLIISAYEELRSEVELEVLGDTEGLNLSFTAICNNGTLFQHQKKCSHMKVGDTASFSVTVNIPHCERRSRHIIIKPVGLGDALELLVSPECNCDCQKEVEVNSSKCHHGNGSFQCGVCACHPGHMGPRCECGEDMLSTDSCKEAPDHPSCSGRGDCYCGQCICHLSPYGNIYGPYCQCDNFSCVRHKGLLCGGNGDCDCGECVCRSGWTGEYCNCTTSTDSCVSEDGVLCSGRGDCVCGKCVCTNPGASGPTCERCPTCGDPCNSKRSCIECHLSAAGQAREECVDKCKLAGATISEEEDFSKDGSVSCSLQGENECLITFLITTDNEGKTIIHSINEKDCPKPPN

“PEGylated A20FMDV2 not bearing K(IPA)E (peptide)” yielded a half-maximal inhibitory concentration (IC50) in test [1] of 2 nM. In test [2], this substance yielded a bound (%) of 52%. The internalized (% of bound radioactivity) in test [3] amounted to 44%.
